Results as given in US20030068675, “Position dependent recognition of GNN nucleotide triplets by zinc fingers” (published 2003).

Experiments:
Assay in all cases: EMSA
Settings in all cases: tags: MBP fusion
ZFP SBS#608 = biological target: T1, ZFP SBS#608 (synthetic)
T1 chain: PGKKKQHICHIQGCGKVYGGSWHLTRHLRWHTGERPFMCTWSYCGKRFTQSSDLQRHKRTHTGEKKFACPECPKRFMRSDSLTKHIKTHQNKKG
How it was run: (§1)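 Purified ZFP was titrated against labeled double-stranded target (1 nM or lower, at least 10-fold below expected Kd) carrying the natural binding site with flanks. Binding buffer was 10 mM Tris pH 7.5, 100 mM KCl, 1 mM MgCl2, 0.1 mM ZnCl2, 5 mM DTT, 10% glycerol, 0.02% BSA, with equilibration for at least 45 min. Bound and free target were separated on a 10% polyacrylamide gel.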

ZFP SBS#613 = ZFP SBS#613 (synthetic)
How it was run: as §1

ZFP SBS#614 = ZFP SBS#614 (synthetic)
How it was run: as §1

ZFP SBS#611 = ZFP SBS#611 (synthetic)
How it was run: as §1

ZFP SBS#612 = biological target: T2, ZFP SBS#612 (synthetic)
T2 chain: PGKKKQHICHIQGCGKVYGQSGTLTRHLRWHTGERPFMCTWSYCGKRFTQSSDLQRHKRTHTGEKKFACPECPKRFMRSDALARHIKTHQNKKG
How it was run: as §1

ZFP SBS#616 = ZFP SBS#616 (synthetic)
How it was run: as §1

ZFP SBS#656 = ZFP SBS#656 (synthetic)
How it was run: as §1

ZFP SBS#657 = biological target: T3, ZFP SBS#657 (synthetic)
T3 chain: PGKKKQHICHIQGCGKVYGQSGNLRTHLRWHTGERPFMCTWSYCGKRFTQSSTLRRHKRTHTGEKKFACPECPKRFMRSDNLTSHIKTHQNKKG
How it was run: as §1

ZFP SBS#654 = ZFP SBS#654 (synthetic)
How it was run: as §1

ZFP SBS#619 = biological target: T4, ZFP SBS#619 (synthetic)
T4 chain: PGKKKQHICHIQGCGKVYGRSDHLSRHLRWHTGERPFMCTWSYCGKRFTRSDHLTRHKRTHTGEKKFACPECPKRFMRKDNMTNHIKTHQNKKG
How it was run: as §1

ZFP SBS#617 = biological target: T5, ZFP SBS#617 (synthetic)
T5 chain: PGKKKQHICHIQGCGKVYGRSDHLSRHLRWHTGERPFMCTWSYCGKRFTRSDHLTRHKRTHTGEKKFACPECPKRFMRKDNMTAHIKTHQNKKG
How it was run: as §1

ZFP SBS#621 = biological target: T6, ZFP SBS#621 (synthetic)
T6 chain: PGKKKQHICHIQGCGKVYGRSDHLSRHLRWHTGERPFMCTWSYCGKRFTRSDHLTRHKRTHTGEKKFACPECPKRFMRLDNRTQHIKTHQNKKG
How it was run: as §1

ZFP SBS#618 = biological target: T7, ZFP SBS#618 (synthetic)
T7 chain: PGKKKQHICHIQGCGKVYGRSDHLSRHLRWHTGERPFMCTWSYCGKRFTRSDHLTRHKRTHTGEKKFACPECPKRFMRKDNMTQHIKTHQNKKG
How it was run: as §1

ZFP SBS#620 = ZFP SBS#620 (synthetic)
How it was run: as §1

ZFP SBS#660 = biological target: T8, ZFP SBS#660 (synthetic)
T8 chain: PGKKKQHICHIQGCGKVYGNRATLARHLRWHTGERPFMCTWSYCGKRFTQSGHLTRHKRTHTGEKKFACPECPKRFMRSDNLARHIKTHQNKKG
How it was run: as §1

ZFP SBS#661 = ZFP SBS#661 (synthetic)
How it was run: as §1

ZFP SBS#628 = biological target: T9, ZFP SBS#628 (synthetic)
T9 chain: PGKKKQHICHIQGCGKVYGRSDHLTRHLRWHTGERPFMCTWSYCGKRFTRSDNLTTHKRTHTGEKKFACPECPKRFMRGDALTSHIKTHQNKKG
How it was run: as §1

ZFP SBS#629 = biological target: T10, ZFP SBS#629 (synthetic)
T10 chain: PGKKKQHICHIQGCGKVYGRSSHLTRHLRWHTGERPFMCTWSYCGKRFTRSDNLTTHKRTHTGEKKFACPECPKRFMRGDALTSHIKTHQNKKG
How it was run: as §1

ZFP SBS#647 = biological target: T11, ZFP SBS#647 (synthetic)
T11 chain: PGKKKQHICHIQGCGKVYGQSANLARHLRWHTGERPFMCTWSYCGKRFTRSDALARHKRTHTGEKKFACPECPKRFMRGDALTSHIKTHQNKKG
How it was run: as §1

ZFP SBS#646 = biological target: T12, ZFP SBS#646 (synthetic)
T12 chain: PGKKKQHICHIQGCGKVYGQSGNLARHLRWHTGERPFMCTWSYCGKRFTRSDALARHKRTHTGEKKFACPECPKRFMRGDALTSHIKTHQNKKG
How it was run: as §1

ZFP SBS#624 = biological target: T13, ZFP SBS#624 (synthetic)
T13 chain: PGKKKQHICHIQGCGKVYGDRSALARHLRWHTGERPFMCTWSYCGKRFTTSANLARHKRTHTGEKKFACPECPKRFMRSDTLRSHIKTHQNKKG
How it was run: as §1

ZFP SBS#651 = ZFP SBS#651 (synthetic)
How it was run: as §1

ZFP SBS#666 = biological target: T14, ZFP SBS#666 (synthetic)
T14 chain: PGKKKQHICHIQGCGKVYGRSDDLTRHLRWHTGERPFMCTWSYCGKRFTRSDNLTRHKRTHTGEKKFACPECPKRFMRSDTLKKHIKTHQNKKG
How it was run: as §1

ZFP SBS#665 = biological target: T15, ZFP SBS#665 (synthetic)
T15 chain: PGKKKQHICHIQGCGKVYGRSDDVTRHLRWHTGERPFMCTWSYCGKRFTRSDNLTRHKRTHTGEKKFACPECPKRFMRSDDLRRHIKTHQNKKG
How it was run: as §1

ZFP SBS#630 = ZFP SBS#630 (synthetic)
How it was run: as §1

ZFP SBS#653 = biological target: T16, ZFP SBS#653 (synthetic, UniProt P08047)
T16 chain: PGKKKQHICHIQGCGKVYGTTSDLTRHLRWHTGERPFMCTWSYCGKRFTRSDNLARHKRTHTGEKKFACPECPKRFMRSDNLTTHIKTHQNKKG
How it was run: as §1

ZFP SBS#652 = ZFP SBS#652 (synthetic)
How it was run: as §1

ZFP SBS#371 = biological target: T17, ZFP SBS#371 (synthetic)
T17 chain: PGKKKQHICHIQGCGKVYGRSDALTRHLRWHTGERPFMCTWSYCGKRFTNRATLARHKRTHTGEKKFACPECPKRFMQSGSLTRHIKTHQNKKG
How it was run: as §1

ZFP SBS#403 = biological target: T18, ZFP SBS#403 (synthetic)
T18 chain: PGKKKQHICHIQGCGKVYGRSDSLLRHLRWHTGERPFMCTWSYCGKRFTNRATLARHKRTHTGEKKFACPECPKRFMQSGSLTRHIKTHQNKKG
How it was run: as §1

ZFP SBS#373 = biological target: T19, ZFP SBS#373 (synthetic)
T19 chain: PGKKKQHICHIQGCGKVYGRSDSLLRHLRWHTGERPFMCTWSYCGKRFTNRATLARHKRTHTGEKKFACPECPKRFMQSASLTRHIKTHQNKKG
How it was run: as §1

ZFP SBS#569 = biological target: T20, ZFP SBS#569 (synthetic)
T20 chain: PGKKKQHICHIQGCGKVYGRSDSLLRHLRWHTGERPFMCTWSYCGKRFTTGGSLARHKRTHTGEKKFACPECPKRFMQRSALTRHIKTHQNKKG
How it was run: as §1

ZFP SBS#401 = biological target: T21, ZFP SBS#401 (synthetic)
T21 chain: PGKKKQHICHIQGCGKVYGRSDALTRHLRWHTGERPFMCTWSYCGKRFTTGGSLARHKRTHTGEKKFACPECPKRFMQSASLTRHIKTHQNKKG
How it was run: as §1

ZFP SBS#369 = biological target: T22, ZFP SBS#369 (synthetic)
T22 chain: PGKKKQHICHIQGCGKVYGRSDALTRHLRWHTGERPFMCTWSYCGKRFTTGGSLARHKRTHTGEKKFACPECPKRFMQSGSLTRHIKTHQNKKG
How it was run: as §1

ZFP SBS#422 = biological target: T23, ZFP SBS#422 (synthetic)
T23 chain: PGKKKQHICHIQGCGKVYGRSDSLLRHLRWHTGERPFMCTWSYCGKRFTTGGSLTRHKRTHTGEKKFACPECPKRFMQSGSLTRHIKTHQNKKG
How it was run: as §1

ZFP SBS#421 = biological target: T24, ZFP SBS#421 (synthetic)
T24 chain: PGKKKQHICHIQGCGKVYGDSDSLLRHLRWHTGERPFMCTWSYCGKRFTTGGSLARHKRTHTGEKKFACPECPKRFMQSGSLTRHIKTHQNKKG
How it was run: as §1

ZFP SBS#370 = biological target: T25, ZFP SBS#370 (synthetic)
T25 chain: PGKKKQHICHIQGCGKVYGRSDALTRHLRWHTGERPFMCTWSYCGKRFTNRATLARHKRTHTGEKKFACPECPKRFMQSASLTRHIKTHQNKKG
How it was run: as §1

ZFP SBS#372 = biological target: T26, ZFP SBS#372 (synthetic)
T26 chain: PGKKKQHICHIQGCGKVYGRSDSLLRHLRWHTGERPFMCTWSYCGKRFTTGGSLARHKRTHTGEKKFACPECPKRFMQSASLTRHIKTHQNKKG
How it was run: as §1

Chain of ZFP SBS#620 (synthetic) (chain, as listed by the source): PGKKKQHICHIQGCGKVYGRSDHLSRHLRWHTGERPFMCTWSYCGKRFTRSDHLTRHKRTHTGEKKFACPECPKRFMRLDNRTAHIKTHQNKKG
Chain of ZFP SBS#652 (synthetic) (chain, as listed by the source): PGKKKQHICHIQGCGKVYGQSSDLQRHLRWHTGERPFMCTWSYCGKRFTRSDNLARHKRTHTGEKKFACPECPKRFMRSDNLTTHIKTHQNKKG
Chain of ZFP SBS#661 (synthetic) (chain, as listed by the source): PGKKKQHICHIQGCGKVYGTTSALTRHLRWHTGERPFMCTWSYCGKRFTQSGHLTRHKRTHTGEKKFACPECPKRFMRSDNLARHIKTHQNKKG
Chain of ZFP SBS#614 (synthetic) (chain, as listed by the source): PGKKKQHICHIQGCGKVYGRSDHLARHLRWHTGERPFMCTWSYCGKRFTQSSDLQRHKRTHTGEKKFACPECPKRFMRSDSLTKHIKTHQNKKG
Chain of ZFP SBS#613 (synthetic) (chain, as listed by the source): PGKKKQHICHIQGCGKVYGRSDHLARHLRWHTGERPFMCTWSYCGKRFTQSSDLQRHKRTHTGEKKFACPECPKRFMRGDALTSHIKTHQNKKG
Chain of ZFP SBS#656 (synthetic) (chain, as listed by the source): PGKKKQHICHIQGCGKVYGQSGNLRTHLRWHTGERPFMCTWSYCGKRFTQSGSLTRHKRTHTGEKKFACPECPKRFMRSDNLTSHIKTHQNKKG
Chain of ZFP SBS#651 (synthetic) (chain, as listed by the source): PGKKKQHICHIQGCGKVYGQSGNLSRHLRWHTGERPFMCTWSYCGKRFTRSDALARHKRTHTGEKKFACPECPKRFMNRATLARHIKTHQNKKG

B1: TTGGCTGGGC (dsDNA)
DNA 1: TTGGCTGGGC
DNA 2: GCCCAGCCAA
Question: With B1 as the binder, how does the Kd (ZFP SBS#608) read?
Answer: 8 nM

Question: And the Kd (ZFP SBS#613)?
Answer: 1.45 nM

Question: And the Kd (ZFP SBS#614)?
Answer: 2 nM

B2: GTGGCTGCAG (dsDNA)
DNA 1: GTGGCTGCAG
DNA 2: CTGCAGCCAC
Question: With B2 as the binder, how does the Kd (ZFP SBS#611) read?
Answer: 11.5 nM

Question: And the Kd (ZFP SBS#612)?
Answer: 0.38 nM

B3: GAGGAGGATG (dsDNA)
DNA 1: GAGGAGGATG
DNA 2: CATCCTCCTC
Question: B3 was tested. Which Kd (ZFP SBS#616) did it give?
Answer: 0.08 nM

B4: TAGGCATAAA (dsDNA)
DNA 1: TAGGCATAAA
DNA 2: TTTATGCCTA
Question: How did the Kd (ZFP SBS#656) turn out when B4 was run?
Answer: 540 nM

Question: And the Kd (ZFP SBS#657)?
Answer: 300 nM

Question: What about the Kd (ZFP SBS#654) of the same binder?
Answer: 105 nM

B5: AAGGGGGGG (dsDNA)
DNA 1: AAGGGGGGG
DNA 2: CCCCCCCTT
Question: What does the source list for B5?
Answer: Kd (ZFP SBS#619): 1.34 nM; Kd (ZFP SBS#617): 1 nM; Kd (ZFP SBS#621): 0.75 nM; Kd (ZFP SBS#618): 0.55 nM; Kd (ZFP SBS#620): 0.54 nM

B6: GAGGGAGTTC (dsDNA)
DNA 1: GAGGGAGTTC
DNA 2: GAACTCCCTC
Question: B6 was tested. Which Kd (ZFP SBS#660) did it give?
Answer: 8.25 nM

Question: And the Kd (ZFP SBS#661)?
Answer: 1.73 nM

B7: TTGTAGGGGA (dsDNA)
DNA 1: TTGTAGGGGA
DNA 2: TCCCCTACAA
Question: What does the source list for B7?
Answer: Kd (ZFP SBS#628): 130 nM; Kd (ZFP SBS#629): 150 nM

B8: TTGGTGGAAG (dsDNA)
DNA 1: TTGGTGGAAG
DNA 2: CTTCCACCAA
Question: Which results are given for B8?
Answer: Kd (ZFP SBS#647): 40 nM; Kd (ZFP SBS#646): 35 nM

B9: ACGGATGTCT (dsDNA)
DNA 1: ACGGATGTCT
DNA 2: AGACATCCGT
Question: For B9, which Kd (ZFP SBS#624) is on record?
Answer: 7 nM

B10: GTTGTGGAAT (dsDNA)
DNA 1: GTTGTGGAAT
DNA 2: ATTCCACAAC
Question: Which Kd (ZFP SBS#651) does the source give for B10 here?
Answer: 67.5 nM

B11: GCGGAGGCGC (dsDNA)
DNA 1: GCGGAGGCGC
DNA 2: GCGCCTCCGC
Question: For B11, which Kd (ZFP SBS#666) is on record?
Answer: 0.5 nM

Question: What about the Kd (ZFP SBS#665) of the same binder?
Answer: 12.5 nM

B12: CGGGGAGAGT (dsDNA)
DNA 1: CGGGGAGAGT
DNA 2: ACTCTCCCCG
Question: With B12 as the binder, how does the Kd (ZFP SBS#630) read?
Answer: 37.5 nM

B13: TAGGAGGCTG (dsDNA)
DNA 1: TAGGAGGCTG
DNA 2: CAGCCTCCTA
Question: With B13 as the binder, how does the Kd (ZFP SBS#653) read?
Answer: 5.5 nM

Question: What about the Kd (ZFP SBS#652) of the same binder?
Answer: 1.5 nM

B14: GTAGTTGTG (dsDNA)
DNA 1: GTAGTTGTG
DNA 2: CACAACTAC
Question: For B14, which Kd (ZFP SBS#371) is on record?
Answer: 175 nM

Question: What about the Kd (ZFP SBS#403) of the same binder?
Answer: 750 nM

Question: What about the Kd (ZFP SBS#373) of the same binder?
Answer: 320 nM

Question: And the Kd (ZFP SBS#569)?
Answer: 52 nM

Question: What about the Kd (ZFP SBS#401) of the same binder?
Answer: 80 nM

Question: What about the Kd (ZFP SBS#369) of the same binder?
Answer: 95 nM

Question: And the Kd (ZFP SBS#422)?
Answer: 200 nM

Question: And the Kd (ZFP SBS#421)?
Answer: 500 nM

Question: What about the Kd (ZFP SBS#370) of the same binder?
Answer: 300 nM

Question: What about the Kd (ZFP SBS#372) of the same binder?
Answer: 112 nM
